Paper PMC3686713

System: OmpR (phosphorylated with acetyl phosphate) (Yersinia pseudotuberculosis IP31758)
Experiment: EMSA

Row | Substance | binding [nM]
1 | T6SS-4 promoter | 40
2 | ompF promoter | 20
